Reference: the supplement of paper PMC10126150
± gives the standard deviation of the averaged measurements.

System: ATP
Assay: switch fluorescence ratio, 500 uM ATP over buffer (Cy3 cluster intensity, sum of 5 cycles each) (fold (ratio)); higher = stronger signal-on switching upon ATP binding; sequences stand for … in TCGTCGGCAGCGTCAGATGTGTATAAGAGACAGTTTTTTTTTTTTTTTTTTTTTTTTT…TC
Settings: aptamer strand: ATP DNA aptamer (quencher-CACCTGGGGGAGTATTGCGGAGGAAGG + anchor), 100 nM annealed; ATP concentration: 500 uM
In short: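 Five buffer/ATP imaging cycles were run on Cy3-labelled switching-strand clusters on a modified Illumina MiSeq flow-cell, with NaOH stripping and re-annealing between cycles. In each cycle, clusters annealed to 100 nM quencher-labelled ATP aptamer were imaged in selection buffer, then after 15 min with 500 uM ATP at 22 °C. Per cluster, the fluorescence ratio is summed target-cycle over summed buffer-cycle Cy3 intensity, averaged per switch-domain sequence. Only clusters within 100-1000 RFU were kept.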
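Further: ATP exposure 15 min at 22 °C before imaging.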

AGCCACATGG
switch fluorescence ratio: 0.98 ± 0.031

TAGATGTTTA
switch fluorescence ratio: 1.32 ± 0.6

TTAATGGGAC
switch fluorescence ratio: 1.012 ± 0.0033

ATTTCGGTGG
switch fluorescence ratio: 1.06 ± 0.044

CCTGGATTAG
switch fluorescence ratio: 1.05 ± 0.041

GCTGCTATTG
switch fluorescence ratio: 0.994 ± 0.02

CGCACTTGGG
switch fluorescence ratio: 0.99283 ± 0.0007

TACCGACATA
switch fluorescence ratio: 1.189 ± 0.0084

TATTGAAAAA
switch fluorescence ratio: 1.06 ± 0.048

GAGATAGTGT
switch fluorescence ratio: 0.991 ± 0.036

AGGAGTAATT
switch fluorescence ratio: 1.01 ± 0.024

GTAAGTTTTT
switch fluorescence ratio: 0.984 ± 0.02

TATATTAGGT
switch fluorescence ratio: 1.13 ± 0.1

GGAATTTAGG
switch fluorescence ratio: 1 ± 0.015

GATTTGGGGA
switch fluorescence ratio: 0.988 ± 0.028

TGATTTTCGT
switch fluorescence ratio: 1 ± 0.044

CCATGTGTG
switch fluorescence ratio: 1.02 ± 0.024

AGCAGGGCGG
switch fluorescence ratio: 0.983 ± 0.011

TGGCAAAATT
switch fluorescence ratio: 1.01 ± 0.033

TTCAGGACTC
switch fluorescence ratio: 0.973 ± 0.045

TTTGAGAAGA
switch fluorescence ratio: 1.02 ± 0.012

TGGTGTGGAA
switch fluorescence ratio: 0.9806 ± 0.0027

CCAAGGGCTG
switch fluorescence ratio: 1.15 ± 0.19

AATATATACT
switch fluorescence ratio: 1.04 ± 0.027

CTGGGGGCGC
switch fluorescence ratio: 0.996 ± 0.03

ATTTGAATTG
switch fluorescence ratio: 1.02 ± 0.03

AACATGGGGG
switch fluorescence ratio: 1.01 ± 0.023

TTAGGCTGTG
switch fluorescence ratio: 0.986 ± 0.03

AAACGCTGCG
switch fluorescence ratio: 1.02 ± 0.035

GGGATTGCGG
switch fluorescence ratio: 1.12 ± 0.23

GAAACGGTGT
switch fluorescence ratio: 1.02 ± 0.031

TGGTCGTATT
switch fluorescence ratio: 0.9577 ± 0.0063

GGAGCGGTGG
switch fluorescence ratio: 0.955 ± 0.042

CATCGGGGGG
switch fluorescence ratio: 1 ± 0.02

AGCTAGCCTT
switch fluorescence ratio: 1.02 ± 0.028

TATGTCTCGC
switch fluorescence ratio: 0.995 ± 0.044

ACATCTATTC
switch fluorescence ratio: 1.01 ± 0.034

CGGCTTATGT
switch fluorescence ratio: 0.9807 ± 0.0029

GGTTTGGTAA
switch fluorescence ratio: 1.014 ± 0.0099

ATGGCAGACA
switch fluorescence ratio: 0.9836 ± 0.0036

GCGTTTGGTA
switch fluorescence ratio: 0.988 ± 0.04

ATACCATCGG
switch fluorescence ratio: 0.981 ± 0.024

GCGGACGGAC
switch fluorescence ratio: 1.08 ± 0.061

GATAATTGG
switch fluorescence ratio: 0.988 ± 0.02

CAAGTAGAGT
switch fluorescence ratio: 0.9953 ± 0.0059

TATTTGTTTT
switch fluorescence ratio: 0.998 ± 0.039

CGGGGTTGGT
switch fluorescence ratio: 1.01 ± 0.016

CTTTGGGCAA
switch fluorescence ratio: 1.46 ± 0.089

ACATCGGTTC
switch fluorescence ratio: 1.02 ± 0.029

TGGGAGTGGT
switch fluorescence ratio: 1 ± 0.003

TCAAAGTACC
switch fluorescence ratio: 1.16 ± 0.073

TGCGGGGGGG
switch fluorescence ratio: 1.03 ± 0.038

AGACTCGGGT
switch fluorescence ratio: 1.02 ± 0.0013

AATATTCTAG
switch fluorescence ratio: 0.994 ± 0.019

AAGTATTTAG
switch fluorescence ratio: 0.994 ± 0.024

TGGGTGTTTT
switch fluorescence ratio: 1.05 ± 0.12

TTGGGTGGGT
switch fluorescence ratio: 1 ± 0.038

GGGACAGTGG
switch fluorescence ratio: 1 ± 0.015

GATTAGGCGG
switch fluorescence ratio: 0.982 ± 0.066

ATTCGAGGGG
switch fluorescence ratio: 1.03 ± 0.061

TTACGGTTT
switch fluorescence ratio: 1 ± 0.025

TGACAAGTGG
switch fluorescence ratio: 1.01 ± 0.015

GTGATCTGAT
switch fluorescence ratio: 1.01 ± 0.029

CTAAATGTTT
switch fluorescence ratio: 1 ± 0.05

AAGACAGCGA
switch fluorescence ratio: 1.41 ± 0.57

CAATAATGTA
switch fluorescence ratio: 1.03 ± 0.051

TGAGGGATGT
switch fluorescence ratio: 1.04 ± 0.059

GGGATATCAT
switch fluorescence ratio: 0.9903 ± 0.0048

GGGGGGGTCC
switch fluorescence ratio: 0.99 ± 0.025

TCTAAAATTT
switch fluorescence ratio: 1.15 ± 0.18

GGGGGGCTCG
switch fluorescence ratio: 0.973 ± 0.064

CGCTGTGCGG
switch fluorescence ratio: 0.99 ± 0.052

ATGATTAAGG
switch fluorescence ratio: 1.015 ± 0.0029

GATCGAAGGG
switch fluorescence ratio: 0.9849 ± 0.0079

GTGAAAGGGA
switch fluorescence ratio: 1.03 ± 0.017

TTAAGGGGGG
switch fluorescence ratio: 1 ± 0.031

TTGCACTACT
switch fluorescence ratio: 1.5 ± 0.025

TTTTAGGGCT
switch fluorescence ratio: 0.989 ± 0.03

GTTAGGAGGC
switch fluorescence ratio: 0.989 ± 0.062

GGAGTTGCGG
switch fluorescence ratio: 0.9089 ± 0.0048

GGTGACGCAC
switch fluorescence ratio: 1.62 ± 0.057

GATTATTCGT
switch fluorescence ratio: 0.99 ± 0.028

ACCAGGTGTG
switch fluorescence ratio: 3.53 ± 0.34

TGCAGTAGTT
switch fluorescence ratio: 1.012 ± 0.005

TGGTAGGGGC
switch fluorescence ratio: 1.02 ± 0.057

TTGAAGAAAA
switch fluorescence ratio: 1.97 ± 1.3

TACGGTGCAG
switch fluorescence ratio: 0.981 ± 0.024

TGACGAGGGG
switch fluorescence ratio: 0.967 ± 0.031

TTGGGGCCAA
switch fluorescence ratio: 1.01 ± 0.051

GTTGTAAAGA
switch fluorescence ratio: 0.98 ± 0.019

CCTGGGGGAA
switch fluorescence ratio: 1.025 ± 0.0073

GTGGGGGTTA
switch fluorescence ratio: 0.996 ± 0.03

AGGGAGGAGT
switch fluorescence ratio: 0.988 ± 0.026

ATAAGCGCAG
switch fluorescence ratio: 1.008 ± 7e-05

CAATCTTGGA
switch fluorescence ratio: 1 ± 0.012

TGATTAGGGG
switch fluorescence ratio: 0.9948 ± 0.0096

GATATGTGTG
switch fluorescence ratio: 0.991 ± 0.011

GAAGCACCGG
switch fluorescence ratio: 1.08 ± 0.026

ATGTTCCTTT
switch fluorescence ratio: 0.999 ± 0.023

TTGGGATGGG
switch fluorescence ratio: 0.998 ± 0.015

GCTTGAATTT
switch fluorescence ratio: 0.984 ± 0.02

TTGAATTTCT
switch fluorescence ratio: 0.992 ± 0.016

ATGGACAGGC
switch fluorescence ratio: 0.912 ± 0.014

AAAGCAGGGG
switch fluorescence ratio: 1.06 ± 0.037

GGAAACTTTT
switch fluorescence ratio: 1.07 ± 0.098

ATAATTTAGC
switch fluorescence ratio: 0.961 ± 0.02

TATTGAACGA
switch fluorescence ratio: 1 ± 0.011

AAATCTTTCG
switch fluorescence ratio: 1.05 ± 0.044

GGCTGGGATG
switch fluorescence ratio: 1.02 ± 0.095

GGGGCCACGA
switch fluorescence ratio: 1.01 ± 0.014

TCAAGGGGGT
switch fluorescence ratio: 1.04 ± 0.097

TGAAGGGACG
switch fluorescence ratio: 1.02 ± 0.015

TGATGGGGTA
switch fluorescence ratio: 1.04 ± 0.019

AAAAAAATGT
switch fluorescence ratio: 1.054 ± 0.01

CATAGGTTAT
switch fluorescence ratio: 0.993 ± 0.048

TTAGAGGTTT
switch fluorescence ratio: 0.971 ± 0.038

TGTTATTTCA
switch fluorescence ratio: 1.02 ± 0.0065

TTAGTGTAAT
switch fluorescence ratio: 1.01 ± 0.025

GGGGCTGTGG
switch fluorescence ratio: 0.9933 ± 0.0087

ATGGGAAGAC
switch fluorescence ratio: 1.06 ± 0.017

CGGCATCGAA
switch fluorescence ratio: 0.985 ± 0.036

TAGTGTATCG
switch fluorescence ratio: 0.993 ± 0.045

AGAATTGAGA
switch fluorescence ratio: 0.971 ± 0.019

AAGGGGCGCT
switch fluorescence ratio: 1.01 ± 0.039

TAAGAGGGGG
switch fluorescence ratio: 0.996 ± 0.052

AGAATACGGA
switch fluorescence ratio: 1.05 ± 0.018

GCTAAATCGC
switch fluorescence ratio: 1.04 ± 0.034

ATGGGCCGCT
switch fluorescence ratio: 0.9835 ± 0.0087

ACGTGGGGGA
switch fluorescence ratio: 1.02 ± 0.051

CGGAGATTAC
switch fluorescence ratio: 2.25 ± 0.035

TTCTGTATTG
switch fluorescence ratio: 1.03 ± 0.035

CGTTGCATGC
switch fluorescence ratio: 1.39 ± 0.099

ACCTGATTAT
switch fluorescence ratio: 1.02 ± 0.02

ATTACTCACC
switch fluorescence ratio: 1.44 ± 0.03

AATGACTATG
switch fluorescence ratio: 0.976 ± 0.056

AGTTGGGGAT
switch fluorescence ratio: 0.986 ± 0.04

GATATACCTT
switch fluorescence ratio: 1.15 ± 0.015

GTTGCGGAGT
switch fluorescence ratio: 1 ± 0.021

AATTTGTGTT
switch fluorescence ratio: 0.992 ± 0.01

GCATTGTCAA
switch fluorescence ratio: 0.992 ± 0.07

TGCGGGAGGG
switch fluorescence ratio: 1.26 ± 0.35

ACGGAAGTTA
switch fluorescence ratio: 1.02 ± 0.025

GGGTATGCAA
switch fluorescence ratio: 1.001 ± 0.0093

CCAGTTTGTG
switch fluorescence ratio: 1.018 ± 0.0037

GCGGGGAGGG
switch fluorescence ratio: 1.05 ± 0.033

TATGGCTTTG
switch fluorescence ratio: 0.9945 ± 0.0061

TTTGGATCCT
switch fluorescence ratio: 1.02 ± 0.019

ATTCTTAGGG
switch fluorescence ratio: 1.12 ± 0.27

GGTTAAGCTT
switch fluorescence ratio: 1.007 ± 0.0078

GAATGGGTCC
switch fluorescence ratio: 1.01 ± 0.029

GATGGCTGCG
switch fluorescence ratio: 1.04 ± 0.039

AGGTGTTCTA
switch fluorescence ratio: 1.02 ± 0.021

GTATGTTGCG
switch fluorescence ratio: 0.96532 ± 0.00026

TATGGAGAGC
switch fluorescence ratio: 1.02 ± 0.038

TAGGGAAGAT
switch fluorescence ratio: 1.07 ± 0.013

AATGTTGGGA
switch fluorescence ratio: 0.995 ± 0.015

CCATCATTTT
switch fluorescence ratio: 0.99 ± 0.041

AAGAGATAGT
switch fluorescence ratio: 1 ± 0.0076

CTAACTGGCA
switch fluorescence ratio: 1.048 ± 0.009

GATATTTAGG
switch fluorescence ratio: 1.02 ± 0.038

GAAGCCATAT
switch fluorescence ratio: 1.48 ± 0.068

GACATTGTGT
switch fluorescence ratio: 0.98604 ± 0.00074

TAATGAGGTC
switch fluorescence ratio: 0.99 ± 0.046

GCAACGTCAA
switch fluorescence ratio: 1.07 ± 0.076

TGCTATGGGG
switch fluorescence ratio: 1 ± 0.016

ACTATCCAGG
switch fluorescence ratio: 2.226 ± 0.0049

CACACAAAAT
switch fluorescence ratio: 0.977 ± 0.014

AGTTGATCCA
switch fluorescence ratio: 0.982 ± 0.015

AGGCTTGCCA
switch fluorescence ratio: 0.9991 ± 0.0016

ATGGCTGGGC
switch fluorescence ratio: 1.005 ± 0.0042

AAATTTCTTT
switch fluorescence ratio: 0.996 ± 0.016

CAACATGGGG
switch fluorescence ratio: 0.9925 ± 0.0065

GGAAGGGCGA
switch fluorescence ratio: 0.9569 ± 0.0068

ACCGCGGGCG
switch fluorescence ratio: 1.069 ± 0.0053

AATCTAACGT
switch fluorescence ratio: 0.9937 ± 0.008

CCGTTAGCTT
switch fluorescence ratio: 2.2 ± 0.079

GGGTGGGGTT
switch fluorescence ratio: 0.991 ± 0.017

AAAATTAGGA
switch fluorescence ratio: 1.02 ± 0.069

ACCATTACAC
switch fluorescence ratio: 1.24 ± 0.024

CGCGTTTTTT
switch fluorescence ratio: 1.07 ± 0.12

AACGTCAGTT
switch fluorescence ratio: 1.003 ± 0.0017

ACCCGGGGCA
switch fluorescence ratio: 1.05 ± 0.054

TTTTGGTTTC
switch fluorescence ratio: 1.05 ± 0.11

TTGGGAAAAA
switch fluorescence ratio: 1.14 ± 0.23

TATTGTGTCG
switch fluorescence ratio: 1.02 ± 0.016

TTACTGTAAT
switch fluorescence ratio: 1.18 ± 0.037

TAATGGTGT
switch fluorescence ratio: 1.02 ± 0.041

CGTTGATTAG
switch fluorescence ratio: 0.984 ± 0.014

TTTTGAGTTA
switch fluorescence ratio: 0.976 ± 0.039

TCGTTTGTGG
switch fluorescence ratio: 1.04 ± 0.013

GGGGTTAGGA
switch fluorescence ratio: 0.979 ± 0.019

TACTGGAAGG
switch fluorescence ratio: 0.941 ± 0.019

CAGAGTGCTG
switch fluorescence ratio: 1.06 ± 0.03

TGGGTGTCCA
switch fluorescence ratio: 1 ± 0.021

TCATGGTCGT
switch fluorescence ratio: 0.982 ± 0.023

GTAGAGAGTG
switch fluorescence ratio: 1 ± 0.02

AATAGAGTTA
switch fluorescence ratio: 1.02 ± 0.023

TTAAGGTGTA
switch fluorescence ratio: 1.1 ± 0.064

GACAATGTAC
switch fluorescence ratio: 4.02 ± 0.16

AGCACAAAAA
switch fluorescence ratio: 1.12 ± 0.096
